In assay [1] the target is T1, alpha-Klotho with endogenous FGFRs on HEK293-alphaKlotho cells. Put plainly: cell-based or functional assay.
Assay [2] addresses FGFR1c and alpha-klotho, human, on BAF3 cells (Example 7) (human, UniProt P11362 22-822; Q9UEF7 34-1012). Nature of the assay: cell-based or functional assay.
Assay [3] concerns the target T1, alpha-Klotho with endogenous FGFRs on …. Nature of the assay: FACS competition on HEK293-alphaKlotho cells against a sub-saturating dose of FGF23. From the text:
IC50 values were derived from the resulting inhibition binding curves (FIG. 7).

Assay [4] deals with T2, FGFR1c/alpha-klotho on BaF3 cells (Example 12) (Homo sapiens (Human), UniProt P11362 22-822; Q9UEF7 34-1012).
T2 construct: also called BaF3 cells expressing FGFR1c and αklotho; BAF3 lines engineered to express FGFR1c/αklotho
Put plainly: FACS competitive binding on BaF3 cells expressing FGFR1c and Klotho, against 0.2 ug/mL FGF-23; drug 0 to 2430 nM; the number stands beside the legend entry under the title 'FACS CO… BINDING IC50', the unit is that of the axis (nM DRUG).

The target of assay [5] is T1, alpha-Klotho with endogenous FGFRs on …. Put plainly: FACS competition on HEK293-alphaKlotho cells: peptide 0.01 to about 1000 nM against 0.2 ug/mL full-length human FGF23, geo mean of PE intensity.
Assay [6] shares this target. Described as above. This is another data set of the same source.
Assay [7] has as its target T3, FGFR4/alpha-klotho on BaF3 cells (Example 12) (Homo sapiens (Human), UniProt P22455 22-802; Q9UEF7 34-1012).
T3 construct: also called BaF3 cells expressing FGFR4 and αklotho; BaF3-FGFR4/αklotho cells
Put plainly: FACS competitive binding on BaF3 cells expressing FGFR4 and Klotho, against 0.2 ug/mL FGF-23; drug 0 to 2430 nM; the number stands beside the legend entry under the title 'FACS CO… BINDING IC50', the unit is that of the axis (nM DRUG).

Assay [8] deals with FGFR1c and alpha-klotho, murine, on BAF3 cells (Example 7) (mouse, UniProt P16092 22-822; O35082 35-1014). Put plainly: cell-based or functional assay.
The target of assay [9] is T4, FGFR1c/alpha-klotho receptor complex, murine, pre-formed (SPR analyte) (mouse, UniProt P16092 22-376; O35082 35-982).
T4 construct: also called pre-formed receptor complex (mouse)
T4 sequence (looked up) 1: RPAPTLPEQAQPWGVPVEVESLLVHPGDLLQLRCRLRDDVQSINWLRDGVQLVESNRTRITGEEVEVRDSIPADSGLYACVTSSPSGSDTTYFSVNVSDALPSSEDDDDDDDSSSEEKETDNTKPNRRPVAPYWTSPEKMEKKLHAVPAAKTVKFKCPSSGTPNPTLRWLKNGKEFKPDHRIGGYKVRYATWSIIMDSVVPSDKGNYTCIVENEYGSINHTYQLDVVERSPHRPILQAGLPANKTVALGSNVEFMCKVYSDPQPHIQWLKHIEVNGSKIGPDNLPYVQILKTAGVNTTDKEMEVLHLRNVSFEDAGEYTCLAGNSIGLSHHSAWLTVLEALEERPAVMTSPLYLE
T4 sequence (looked up) 2: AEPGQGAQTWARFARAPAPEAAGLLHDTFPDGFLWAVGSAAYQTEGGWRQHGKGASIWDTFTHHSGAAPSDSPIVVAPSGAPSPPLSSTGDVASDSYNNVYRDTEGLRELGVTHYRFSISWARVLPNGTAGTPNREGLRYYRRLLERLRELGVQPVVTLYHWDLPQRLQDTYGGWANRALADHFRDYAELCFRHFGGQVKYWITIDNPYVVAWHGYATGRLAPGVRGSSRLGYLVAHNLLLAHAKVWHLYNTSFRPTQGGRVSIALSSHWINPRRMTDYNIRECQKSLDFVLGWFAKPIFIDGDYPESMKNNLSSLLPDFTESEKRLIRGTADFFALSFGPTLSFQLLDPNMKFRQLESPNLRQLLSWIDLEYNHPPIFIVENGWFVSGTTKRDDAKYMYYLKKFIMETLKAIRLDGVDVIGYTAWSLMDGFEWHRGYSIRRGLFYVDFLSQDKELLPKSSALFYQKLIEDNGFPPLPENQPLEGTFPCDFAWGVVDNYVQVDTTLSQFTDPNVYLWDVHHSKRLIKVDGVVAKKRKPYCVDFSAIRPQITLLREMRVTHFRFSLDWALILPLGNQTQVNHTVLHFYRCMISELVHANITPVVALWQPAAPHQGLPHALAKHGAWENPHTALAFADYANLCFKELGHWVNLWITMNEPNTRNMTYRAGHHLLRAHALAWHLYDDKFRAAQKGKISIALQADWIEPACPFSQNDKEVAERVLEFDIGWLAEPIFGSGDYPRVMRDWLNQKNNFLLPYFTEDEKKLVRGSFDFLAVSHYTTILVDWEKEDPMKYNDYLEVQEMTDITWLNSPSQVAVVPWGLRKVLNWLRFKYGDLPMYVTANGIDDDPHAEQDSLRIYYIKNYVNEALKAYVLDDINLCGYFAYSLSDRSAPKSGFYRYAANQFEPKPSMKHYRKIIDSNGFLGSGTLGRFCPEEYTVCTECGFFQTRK
Nature of the assay: SPR competition; full-length murine FGF23 on the Biacore chip, set amount of pre-formed receptor complex with increasing c-tail construct. How it is done:
The potency of the human and murine constructs were determined via both competitive inhibition using SPR and cellular viability assays (Cell Titer Glo). […] Experiments were done in a species specific manner meaning that all components were from a single species, either mouse or human. For the functional experiments, BAF3 cells were engineered to stably express FGFR1c and α-klotho. BAF3 cells are dependent on IL-3 for growth. […] Once again this was done in a species specific manner.
For orientation: Surface plasmon resonance follows binding to a sensor surface in real time, without labels.

Assay [10] concerns the target T1, alpha-Klotho with endogenous FGFRs on …. Nature of the assay: FACS competition on HEK293-alphaKlotho cells: peptide 0.01 to about 1000 nM against 0.2 ug/mL full-length human FGF23, geo mean of PE intensity. The source holds these as a separate data set.

The values that follow come from patent US20170226172A1 (NEW YORK UNIVERSITY, published 2017).

Like-named read-outs stand apart in the source and are kept apart here.

B1: Human Wild Type FGF23 c-tail Fc (FGF23-c-tail-FC1), mature (Fc fusion)
chain: EPKSCDKTHTCPPCPAPEAAGAPSVFLFPPKPKDTLMISRTPEVTCVVVDVSHEDPEVKFNWYVDGVEVHNAKTKPREEQYNSTYRVVSVLTVLHQDWLNGKEYKCKVSNKALPAPIEKTISKAKGQPREPQVYTLPPSREEMTKNQVSLTCLVKGFYPSDIAVEWESNGQPENNYKTTPPVLDSDGSFFLYSKLTVDKSRWQQGNVFSCSVMHEALHNHYTQKSLSLSPGGGGGSSAEDDSERDPLNVLKPRARMTPAPASCSQELPSAEDNSPMASDPLGVVRGGRVNTHAGGTGPEGCRPFAKFI
notes: Made in CHO cells; also called HuFGF23 c-tail Fc; huFGF23-Fc
What is called IC50 is the concentration that gives 50% inhibition. With B1, in assay [1], the “IC50, inhibition of FGF23-mediated Egr1-luciferase activity in HEK293 cells expressing alpha-klotho (after assay optimization)” value came out at 21.5 nM and the “IC50, inhibition of FGF23-mediated Egr1-luciferase activity in HEK293 cells expressing alpha-klotho (prior to assay optimization)” value was 202 nM. Moreover, the “IC50, cellular viability (Cell Titer Glo) of BAF3 cells expressing FGFR1c and alpha-klotho kept alive by FGF23” value in assay [2] was found to be 53 nM. Further, the “IC50 (read off the curve)” value in assay [3] was roughly 10 nM. In addition, the IC50 in assay [4] is 20.4 nM.

B2: Human FGF23 c-tail 70 (-2 amino acid construct) peptide (peptide)
peptide: SAEDDSERDPLNVLKPRARMTPAPASCSQELPSAEDNSPMASDPLGVVRGGRVNTHAGGTGPEGCRPFAK
notes: also called truncated FGF23 c-tail peptide, 70 amino acids
Turning to B2, in assay [5], the IC50 came out at 2.4 nM.

B3: Wild Type Human FGF23 c-tail 180-251 (72 amino acid peptide) (peptide)
peptide: SAEDDSERDPLNVLKPRARMTPAPASCSQELPSAEDNSPMASDPLGVVRGGRVNTHAGGTGPEGCRPFAKFI
notes: also called FGF23 c-tail peptide; unconjugated FGF23 c-tail peptide
B3: the “IC50, inhibition of FGF23 signaling (Egr1-luciferase) in HEK293 cells expressing alpha-klotho (prior to assay optimization)” value in assay [1] was found to be 81.9 nM. Moreover, in assay [3], the “IC50 (read off the curve)” value was roughly 20 nM. The IC50 in assay [6] was 2.9 nM; in [7], 23 nM; in [4], 15.4 nM.

B4: Wild Type Murine FGF23 c-tail Fc (muFGF23-c-tail-FC1), mature (Fc fusion)
chain: VPRDAGCKPCICTVPPVSSVFIFPPKPKDVLTITLTPKVTCVVVDISKDDPEVQFSWFVDDVEVHTAQTQPREEQFNSTFRSVSELPIMHQDWLNGKAFACAVNSAAFPAPIEKTISKTKGRPKAPQVYTIPPPKEQMAKDKVSLTCMITDFFPEDITVEWQWNGQPAENYKNTQPIMDTDGSYFVYSKLNVQKSNWEAGNTFTCSVLHEGLHNHHTEKSLSHSPGGGGGSSAEDPPERDPLNVLKPRPRATPVPVSCSRELPSAEEGGPAASDPLGVLRRGRGDARGGAGGADRCRPFPRFV
notes: also called Murine FGF23-Fc; surrogate molecule
By Ki is commonly meant the equilibrium dissociation constant of an inhibitor or competing ligand from its target. The low end stands for a stronger hold on the target, the high end for a looser hold on the target. In the case of B4, the “IC50, cellular viability (Cell Titer Glo) of BAF3 cells expressing FGFR1c and alpha-klotho kept alive by FGF23” value in [8] is 35 nM. Besides, the Ki in [9] turned out to be 10 nM.

B5: Human FGF23 c-tail 69 (-3 amino acid construct) peptide (peptide)
peptide: SAEDDSERDPLNVLKPRARMTPAPASCSQELPSAEDNSPMASDPLGVVRGGRVNTHAGGTGPEGCRPFA
notes: also called truncated FGF23 c-tail peptide, 69 amino acids
B5 had a half-inhibitory concentration (IC50) in [10] of 2.8 nM.
